Test results published in the supplement of paper PMC10126150.
± gives the standard deviation of the averaged measurements.

Tested on: ATP
Test: switch fluorescence ratio, 500 uM ATP over buffer (Cy3 cluster intensity, sum of 5 cycles each) (fold (ratio)); higher = stronger signal-on switching upon ATP binding; sequences stand for … in TCGTCGGCAGCGTCAGATGTGTATAAGAGACAGTTTTTTTTTTTTTTTTTTTTTTTTT…TC
Details: aptamer strand: ATP DNA aptamer (quencher-CACCTGGGGGAGTATTGCGGAGGAAGG + anchor), 100 nM annealed; ATP concentration: 500 uM
In short: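 Clusters with intensities outside 100-1000 RFU were excluded. The remaining Cy3-labelled switching-strand clusters on a modified Illumina MiSeq flow-cell had been annealed to 100 nM quencher-labelled ATP aptamer and imaged in selection buffer, then after 15 min with 500 uM ATP at 22 °C, for five cycles separated by NaOH stripping and re-annealing. The fluorescence ratio, averaged per switch-domain sequence, is each cluster's summed target-cycle Cy3 intensity over its summed buffer-cycle Cy3 intensity.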
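Also: ATP exposure 15 min at 22 °C before imaging.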

Row | Sequence | switch fluorescence ratio
1 | AAAAAAAGCT | 1.06 ± 0.075
2 | AAAAAAAGGG | 1.01 ± 0.047
3 | AAAAAAATGC | 0.974 ± 0.037
4 | AAAAAACGCC | 1.02 ± 0.027
5 | AAAAAAGGGT | 1.02 ± 0.021
6 | AAAAAAGGTT | 1.07 ± 0.14
7 | AAAAAATATT | 1.029 ± 0.0043
8 | AAAAAATGCC | 1.07 ± 0.091
9 | AAAAACAGCG | 1.02 ± 0.053
10 | AAAAACTCTG | 1.01 ± 0.079
11 | AAAAATAGGG | 1.03 ± 0.04
12 | AAAAATGTTA | 1.01 ± 0.018
13 | AAAAATTCAG | 0.987 ± 0.045
14 | AAAACATGGA | 0.9537 ± 0.0037
15 | AAAACGTTAC | 1.68 ± 0.02
16 | AAAACGTTTG | 1.025 ± 0.0023
17 | AAAACTGAGC | 1.08 ± 0.031
18 | AAAACTGCGA | 1.03 ± 0.067
19 | AAAACTTTAC | 1.2918 ± 0.00043
20 | AAAAGAAAGC | 0.956 ± 0.03
21 | AAAAGAACGA | 1.05 ± 0.074
22 | AAAAGAATGG | 0.971 ± 0.043
23 | AAAAGACGG | 1 ± 0.062
24 | AAAAGCACGA | 1.09 ± 0.2
25 | AAAAGCCGGG | 0.979 ± 0.16

Row | Sequence | switch fluorescence ratio
26 | AAAAGCGGTA | 1 ± 0.054
27 | AAAAGGGAGC | 1.14 ± 0.14
28 | AAAAGGGGGC | 1.01 ± 0.05
29 | AAAAGGGGGG | 1.02 ± 0.044
30 | AAAAGGGTTA | 0.9976 ± 0.004
31 | AAAAGGTAAA | 1.02 ± 0.021
32 | AAAAGGTGCG | 0.993 ± 0.013
33 | AAAAGGTTAA | 0.968 ± 0.019
34 | AAAAGTAGAA | 0.992 ± 0.023
35 | AAAAGTATAC | 1.06 ± 0.072
36 | AAAAGTCCGC | 1.45 ± 0.062
37 | AAAAGTGGCA | 1.07 ± 0.065
38 | AAAAGTGGGC | 1.07 ± 0.081
39 | AAAAGTGTTA | 0.977 ± 0.027
40 | AAAAGTGTTG | 0.948 ± 0.03
41 | AAAAGTTGCG | 0.9679 ± 0.0076
42 | AAAAGTTTGG | 1 ± 0.015
43 | AAAATAGAAC | 1.01 ± 0.041
44 | AAAATATTCG | 1.01 ± 0.011
45 | AAAATCGCTT | 1.01 ± 0.065
46 | AAAATCGGCG | 1.05 ± 0.073
47 | AAAATCGGGT | 1.03 ± 0.025
48 | AAAATCTAAA | 1.014 ± 0.0068
49 | AAAATGAGTG | 0.985 ± 0.021
50 | AAAATGATTT | 1.02 ± 0.043

Row | Sequence | switch fluorescence ratio
51 | AAAATGCAG | 0.9856 ± 0.0015
52 | AAAATGCGCT | 0.975 ± 0.013
53 | AAAATGCGTG | 0.966 ± 0.059
54 | AAAATGCTTT | 1.01 ± 0.0014
55 | AAAATGGAAA | 1.028 ± 0.0035
56 | AAAATGGATG | 0.983 ± 0.031
57 | AAAATGGCAG | 1.004 ± 0.0089
58 | AAAATGGGTG | 0.976 ± 0.015
59 | AAAATGGGTT | 1 ± 0.059
60 | AAAATTATAT | 1.02 ± 0.035
61 | AAAATTATTT | 1.01 ± 0.021
62 | AAAATTGAAA | 0.988 ± 0.073
63 | AAAATTGCGT | 1.16 ± 0.2
64 | AAAATTGGAA | 1 ± 0.03
65 | AAAATTGTCT | 0.981 ± 0.023
66 | AAAATTTGTG | 0.995 ± 0.017
67 | AAAATTTTTA | 1 ± 0.021
68 | AAACACAAGA | 1.13 ± 0.18
69 | AAACAGGGAT | 1 ± 0.032
70 | AAACAGTTGG | 0.9936 ± 0.0097
71 | AAACATAAGC | 0.991 ± 0.038
72 | AAACATTTCA | 0.976 ± 0.063
73 | AAACCAGTG | 1.175 ± 0.0088
74 | AAACCGGGGG | 1.1 ± 0.085
75 | AAACCTCTGG | 0.965 ± 0.02

Row | Sequence | switch fluorescence ratio
76 | AAACGAGGAG | 1 ± 0.013
77 | AAACGAGGGT | 1.02 ± 0.03
78 | AAACGATGTG | 0.985 ± 0.023
79 | AAACGCAAAG | 1.27 ± 0.3
80 | AAACGGGGCT | 1.02 ± 0.012
81 | AAACTGTAAT | 1.08 ± 0.017
82 | AAACTTGTAC | 1.1 ± 0.036
83 | AAACTTTGTT | 1.02 ± 0.039
84 | AAAGAAAGC | 1.02 ± 0.08
85 | AAAGAAAGCG | 0.997 ± 0.042
86 | AAAGAAATTG | 1.01 ± 0.035
87 | AAAGAACGGG | 1.04 ± 0.023
88 | AAAGAAGCAT | 1.001 ± 0.0059
89 | AAAGAAGGGA | 0.981 ± 0.015
90 | AAAGAAGGGC | 0.938 ± 0.05
91 | AAAGACAGGG | 0.976 ± 0.036
92 | AAAGACGGTT | 0.997 ± 0.013
93 | AAAGAGAAGT | 1.02 ± 0.019
94 | AAAGAGAGTA | 1.01 ± 0.038
95 | AAAGAGCGCC | 0.947 ± 0.03
96 | AAAGAGGAGA | 1.02 ± 0.023
97 | AAAGAGGGG | 0.98 ± 0.029
98 | AAAGAGGGGG | 1.03 ± 0.049
99 | AAAGAGTCCT | 1.01 ± 0.029
100 | AAAGAGTTGA | 1 ± 0.022

Row | Sequence | switch fluorescence ratio
101 | AAAGAGTTGC | 0.9785 ± 0.0069
102 | AAAGAGTTTT | 1.02 ± 0.071
103 | AAAGATAATT | 0.982 ± 0.018
104 | AAAGATATAA | 1.03 ± 0.036
105 | AAAGATGATG | 1.0025 ± 0.00068
106 | AAAGATGCGG | 1.01 ± 0.066
107 | AAAGATGGCT | 0.98 ± 0.025
108 | AAAGATTAAA | 0.9918 ± 0.0056
109 | AAAGATTCGA | 0.996 ± 0.01
110 | AAAGATTTGT | 0.978 ± 0.016
111 | AAAGCAATGG | 2.51 ± 2
112 | AAAGCAATTG | 1.077 ± 0.0065
113 | AAAGCAGGGA | 1.04 ± 0.043
114 | AAAGCATAAC | 1.91 ± 0.14
115 | AAAGCGGGGG | 1.04 ± 0.016
116 | AAAGCGTGGA | 1 ± 0.011
117 | AAAGCGTGTG | 1.01 ± 0.043
118 | AAAGCTATTC | 1.12 ± 0.16
119 | AAAGCTCACC | 1.12 ± 0.026
120 | AAAGGAAGGT | 1.01 ± 0.024
121 | AAAGGAGGAA | 0.989 ± 0.019
122 | AAAGGAGGGC | 0.968 ± 0.067
123 | AAAGGAGTTT | 1.01 ± 0.072
124 | AAAGGATGAG | 0.979 ± 0.019
125 | AAAGGATGAT | 0.9978 ± 0.0031

Row | Sequence | switch fluorescence ratio
126 | AAAGGCATGT | 1.04 ± 0.017
127 | AAAGGCGTAT | 1.008 ± 0.0036
128 | AAAGGCGTCA | 1.01 ± 0.016
129 | AAAGGCGTTA | 0.9971 ± 0.0062
130 | AAAGGGAAAT | 0.975 ± 0.037
131 | AAAGGGAACC | 1.017 ± 0.0037
132 | AAAGGGATAT | 0.975 ± 0.049
133 | AAAGGGCCTT | 1.003 ± 0.0024
134 | AAAGGGCGAC | 0.973 ± 0.014
135 | AAAGGGGATG | 1.01 ± 0.016
136 | AAAGGGGGAT | 1 ± 0.023
137 | AAAGGGGTAA | 0.982 ± 0.02
138 | AAAGGGGTAC | 1.04 ± 0.016
139 | AAAGGGGTGC | 1.05 ± 0.048
140 | AAAGGGTAAT | 0.984 ± 0.018
141 | AAAGGGTAGT | 0.9813 ± 0.0014
142 | AAAGGTAATC | 1.01 ± 0.023
143 | AAAGGTATTC | 1 ± 0.02
144 | AAAGGTGATA | 1.03 ± 0.037
145 | AAAGGTGGCA | 1 ± 0.017
146 | AAAGGTGGGG | 1.001 ± 0.01
147 | AAAGGTGTGT | 1.04 ± 0.073
148 | AAAGGTTAAA | 0.99 ± 0.018
149 | AAAGGTTGCT | 1.007 ± 0.01
150 | AAAGGTTGGG | 0.992 ± 0.044

Row | Sequence | switch fluorescence ratio
151 | AAAGGTTTTT | 0.988 ± 0.016
152 | AAAGTAAGCC | 0.984 ± 0.018
153 | AAAGTACCCG | 1.07 ± 0.04
154 | AAAGTAGGTT | 0.991 ± 0.023
155 | AAAGTATATA | 1.02 ± 0.04
156 | AAAGTCTATT | 0.99 ± 0.02
157 | AAAGTGCCCG | 0.979 ± 0.022
158 | AAAGTGGCCC | 0.997 ± 0.018
159 | AAAGTGGGCC | 0.9593 ± 0.0049
160 | AAAGTGGTCG | 1.1 ± 0.039
161 | AAAGTGGTCT | 1 ± 0.015
162 | AAAGTGTAAA | 1.08 ± 0.058
163 | AAAGTGTCGT | 0.973 ± 0.028
164 | AAAGTGTGCG | 1.01 ± 0.023
165 | AAAGTTAGTT | 1.03 ± 0.019
166 | AAAGTTATAT | 1.022 ± 0.0028
167 | AAAGTTTGTT | 1.025 ± 0.007
168 | AAAGTTTTAA | 1.02 ± 0.018
169 | AAATAAACA | 0.999 ± 0.023
170 | AAATAACGGT | 1.16 ± 0.21
171 | AAATAACTAC | 1.08 ± 0.015
172 | AAATAATTGG | 1.09 ± 0.013
173 | AAATAATTTA | 0.955 ± 0.038
174 | AAATACCGCA | 1.48 ± 0.17
175 | AAATACGCTC | 1.25 ± 0.2

Row | Sequence | switch fluorescence ratio
176 | AAATACTTGC | 1.14 ± 0.074
177 | AAATAGACCG | 1 ± 0.0091
178 | AAATAGGTGG | 0.996 ± 0.024
179 | AAATAGTCTG | 0.972 ± 0.017
180 | AAATAGTGTG | 1 ± 0.033
181 | AAATATAGTG | 0.991 ± 0.025
182 | AAATATATAT | 0.994 ± 0.044
183 | AAATATATTC | 1.02 ± 0.012
184 | AAATATGGGC | 0.961 ± 0.022
185 | AAATATTATA | 1.02 ± 0.031
186 | AAATATTGAG | 1 ± 0.015
187 | AAATATTGGT | 1.01 ± 0.03
188 | AAATATTTCC | 1.09 ± 0.06
189 | AAATCAAACG | 1.05 ± 0.018
190 | AAATCAACCC | 0.9885 ± 0.0083
191 | AAATCAGGTT | 0.972 ± 0.016
192 | AAATCATTAT | 1.01 ± 0.019
193 | AAATCATTGG | 1.01 ± 0.026
194 | AAATCCAATA | 1.0106 ± 0.0007
195 | AAATCCCGCT | 1.0834 ± 0.00016
196 | AAATCCCGTA | 1.01 ± 0.052
197 | AAATCCGCTT | 1.27 ± 0.26
198 | AAATCGCGGA | 1.05 ± 0.011
199 | AAATCTTAAT | 1.002 ± 0.007
200 | AAATGAAAGT | 0.995 ± 0.015
